Experiment [1] deals with T1, CEA on MKN45 cells (UniProt P06731 35-685).
T1 construct: whole, on cells
T1 sequence (looked up): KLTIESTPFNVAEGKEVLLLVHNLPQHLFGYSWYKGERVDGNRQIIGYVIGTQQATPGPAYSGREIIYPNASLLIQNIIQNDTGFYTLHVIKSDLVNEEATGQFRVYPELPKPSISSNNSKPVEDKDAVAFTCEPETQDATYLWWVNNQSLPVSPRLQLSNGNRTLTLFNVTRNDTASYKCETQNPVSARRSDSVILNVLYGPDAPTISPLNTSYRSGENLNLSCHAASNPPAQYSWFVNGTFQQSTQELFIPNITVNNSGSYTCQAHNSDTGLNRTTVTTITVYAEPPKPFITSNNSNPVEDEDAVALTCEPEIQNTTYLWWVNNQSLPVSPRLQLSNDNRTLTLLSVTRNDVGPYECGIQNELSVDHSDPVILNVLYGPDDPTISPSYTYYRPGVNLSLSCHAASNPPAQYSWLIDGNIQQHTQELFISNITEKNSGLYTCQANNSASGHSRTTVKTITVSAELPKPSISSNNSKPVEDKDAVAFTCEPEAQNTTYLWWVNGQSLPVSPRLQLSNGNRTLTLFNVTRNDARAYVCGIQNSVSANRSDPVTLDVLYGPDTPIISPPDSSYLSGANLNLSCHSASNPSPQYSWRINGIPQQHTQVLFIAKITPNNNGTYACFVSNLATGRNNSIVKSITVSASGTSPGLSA
Briefly: FACS, MKN45 cells. (A flow cytometer gives signals particle by particle.)

The target in experiment [2] is T1, CEA on MKN45 cells. Put plainly: FACS, MKN45 cells. The source holds these as a separate data set.
For another experiment, the target named is T2, human TIGIT-his (human, UniProt Q495A1 22-141, limits assumed).
T2 construct: bought; also called hTIGIT
T2 sequence (looked up): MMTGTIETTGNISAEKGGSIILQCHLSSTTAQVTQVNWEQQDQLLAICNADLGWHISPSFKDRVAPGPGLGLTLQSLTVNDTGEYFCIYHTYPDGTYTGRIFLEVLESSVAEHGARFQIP
Put plainly: SPR Biacore T200, antibody captured on Protein A chip. (In general: Surface plasmon resonance follows binding to a sensor surface in real time, without labels.)

A further experiment addresses T3, hP40 (human, UniProt P29460 23-328).
T3 construct: bought
T3 sequence (looked up): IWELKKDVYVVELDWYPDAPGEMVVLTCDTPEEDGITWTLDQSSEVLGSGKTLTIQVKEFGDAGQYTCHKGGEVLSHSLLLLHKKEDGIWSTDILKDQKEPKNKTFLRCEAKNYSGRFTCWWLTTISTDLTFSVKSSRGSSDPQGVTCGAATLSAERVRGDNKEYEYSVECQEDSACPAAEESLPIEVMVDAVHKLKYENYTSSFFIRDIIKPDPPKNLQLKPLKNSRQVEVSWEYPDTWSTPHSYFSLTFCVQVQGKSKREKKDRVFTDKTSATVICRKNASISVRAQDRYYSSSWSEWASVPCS
Put plainly: ELISA. In general terms: An ELISA detects its analyte on a solid surface through an enzyme-linked reagent.

The target in the next experiment is T4, hBAFF (human, UniProt Q9Y275 134-285).
T4 construct: bought
Put plainly: ELISA.

A further experiment concerns the target T5, human PDL1-his (human, UniProt Q9NZQ7 19-239).
T5 construct: bought; also called hPDL1
Briefly: SPR Biacore T200, antibody captured on Protein A chip.

Another experiment deals with T6, hB7H3 antigen protein (human, UniProt Q5ZPR3 29-461).
T6 construct: prepared in the laboratory
T6 sequence: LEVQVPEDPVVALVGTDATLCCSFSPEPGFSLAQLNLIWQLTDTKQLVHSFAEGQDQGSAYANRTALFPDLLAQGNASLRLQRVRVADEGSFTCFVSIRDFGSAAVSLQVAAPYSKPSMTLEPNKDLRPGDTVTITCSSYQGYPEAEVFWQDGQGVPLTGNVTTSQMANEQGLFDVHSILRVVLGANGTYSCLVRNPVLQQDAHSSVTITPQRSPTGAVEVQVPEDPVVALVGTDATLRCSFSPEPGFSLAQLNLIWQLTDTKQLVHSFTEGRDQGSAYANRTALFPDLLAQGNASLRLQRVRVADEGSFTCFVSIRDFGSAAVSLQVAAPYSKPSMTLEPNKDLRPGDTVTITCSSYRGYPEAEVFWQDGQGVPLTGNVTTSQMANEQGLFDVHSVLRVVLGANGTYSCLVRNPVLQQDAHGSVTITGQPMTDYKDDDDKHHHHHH
The description is as above.

The target of experiment [3] is T7, B7H3 on the recombinant cell line CT26-B7H3 (UniProt Q5ZPR3 29-534, limits assumed).
T7 construct: whole, on cells
T7 sequence (looked up): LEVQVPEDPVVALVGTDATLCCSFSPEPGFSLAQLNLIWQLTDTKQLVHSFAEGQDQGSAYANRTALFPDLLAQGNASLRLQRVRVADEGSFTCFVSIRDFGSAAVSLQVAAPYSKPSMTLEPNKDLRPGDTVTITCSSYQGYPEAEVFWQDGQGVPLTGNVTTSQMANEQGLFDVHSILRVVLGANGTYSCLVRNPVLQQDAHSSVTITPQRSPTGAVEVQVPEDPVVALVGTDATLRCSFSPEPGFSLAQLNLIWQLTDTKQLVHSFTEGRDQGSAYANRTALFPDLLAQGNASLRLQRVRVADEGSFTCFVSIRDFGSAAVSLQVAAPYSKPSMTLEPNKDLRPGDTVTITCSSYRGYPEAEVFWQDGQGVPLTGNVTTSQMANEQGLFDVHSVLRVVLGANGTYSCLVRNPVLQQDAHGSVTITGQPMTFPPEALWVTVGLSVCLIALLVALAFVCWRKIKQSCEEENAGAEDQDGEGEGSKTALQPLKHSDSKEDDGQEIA
Briefly: FACS, CT26-B7H3 cells.

Read-outs that look alike come from different tables or passages of the source.

This is an account of results in patent US20240392020A1 (JIANGSU HENGRUI PHARMACEUTICALS, published 2024).

For orientation: EC50 means the concentration at which the effect is half-maximal. By Kd is commonly meant the constant that tells how readily two partners part at equilibrium. In general, koff refers to a measure of how fast the partners let go of each other. A higher koff goes with a short-lived complex. For orientation: kon means the second-order rate constant of association. Read a high kon as fast association.

T5 sequence (Q9NZQ7 19-239 limits assumed): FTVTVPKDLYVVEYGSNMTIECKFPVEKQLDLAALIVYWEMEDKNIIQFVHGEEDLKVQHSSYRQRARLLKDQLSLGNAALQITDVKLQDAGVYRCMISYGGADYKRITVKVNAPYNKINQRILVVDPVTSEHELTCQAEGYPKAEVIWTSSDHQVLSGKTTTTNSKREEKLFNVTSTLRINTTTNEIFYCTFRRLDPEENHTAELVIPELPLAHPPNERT
Description for hB7H3 antigen protein: The affinity of a test antibody for an antigen protein was determined by using a Biacore T200 (GE) instrument. […] The data obtained from the experiment was fitted with BIAevaluation version 4.1, GE software using a (1:1) Langmuir model to obtain affinity values.
Description for hBAFF: (§1) For an antibody targeting a soluble protein, the binding activity of the antibody against the soluble protein was detected by ELISA. […] After the blocking was completed, the blocking solution was discarded; and the plate was washed 3 times with a PBST buffer (pH 7.4, PBS containing 0.1% tween-20). 100 μL of the antibody solution diluted in a gradient was added to each well, and the mixture was incubated at 37° C. for 1 h. After the incubation was completed, the plate was washed 3 times with PBST. […] The plate was washed 3 times with PBST. […] The reaction was stopped by adding 50 μL of 1 M H₂SO₄ to each well. The absorbance values at 450 nm were read on a microplate reader, the binding curves of the antibodies to an antigen were fitted with software, and the EC₅₀ values were calculated.
Description for hP40: as §1
Description for human PDL1-his: (§2) After dissociation was completed for each cycle, the biosensor chip was washed with 10 mM Gly-HCl at pH 1.5 for regeneration. Data were fitted using a 1:1 model.
Description for human TIGIT-his: as §2

B1: N4 (antibody)
heavy: not shown
light: EIVLTQSPGTLSLSPGERATLSCRASQNINNRFLAWYQQRPGQAPRLLIYAASSRATGVPDRFSGSGSGTDFTLTISRLEAEDFAMYHCQQYGSFPRTFGQGTMVDIKQGSPPCFLRFPRPVRVVSGAEAELKCVVLGEPPPVVVWEKGGQQLAASERLSFPADGAEHGLLLTAALPTDAGVYVCRARNAAGEAYAAAAVTVLEPP
Regarding B1, the EC50 with CEA on MKN45 cells [1] is 5.93 nM; in the experiment with CEA on MKN45 cells [2] it was 4.6 nM.

B2: N7 (antibody)
heavy: not shown
light: EIVLTQSPGTLSLSPGERATLSCRASQNINNRFLAWYQQRPGQAPRLLIYAASSRATGVPDRFSGSGSGTDFTLTISRLEAEDFAMYHCQQYGSFPRTFGQGTMVDIKQGSPPEFLRFPRPVRVVSGAEAELKCVVLGEPPPVVVWEKGGQQLAASERLSFPADGAEHGLLLTAALPTDAGCYVCRARNAAGEAYAAAAVTVLEPP
Consider B2, for which the half-maximal effective concentration (EC50) with CEA on MKN45 cells [2] was found to be 2.8 nM.

B3: N8 (antibody)
heavy: not shown
light: EIVLTQSPGTLSLSPGERATLSCRASQNINNRFLAWYQQRPGQAPRLLIYAASSRATGVPDRFSGSGSGTDFTLTISRLEAEDFAMYHCQQYGSFPRTFGQGTMVDIKQGSPPEFLRFPRPVRVVSGAEAELKSVVLGEPPPVVVWEKGGQQLAASERLSFPADGAEHGLLLTAALPTDAGCYVSRARNAAGEAYAAAAVTVLEPP
In turn, B3 displayed a concentration for a half-maximal effect (EC50) with CEA on MKN45 cells [2] of 2.6 nM.

B4: h1708-04 (antibody, human IgG1, kappa, V domains shown)
VH: EVQLVQSGAEVKKPGASVKVSCKASGYTFTNYWMHWVRQAPGQGLEWMGRIDPDSTGSKYNEKFKTRVTMTRDTSTSTVYMELSSLRSEDTAVYYCAREGAYGYYFDYWGQGTLVTVSS
VL: DIQMTQSPSSLSASVGDRVTITCRASENIYSYLAWYQQKPGKSPKLLIYNARTLAEGVPSRFSGSGSGTDFTLTISSLQPEDFATYYCQYHSGSPLPFGGGTKVEIKR
notes: also called T-IgG1; TIGIT monoclonal antibody
In the experiment with human TIGIT-his, B4 registered a dissociation constant Kd of 0.0651 nM, a koff of 0.000139 s⁻¹ and an on-rate constant (kon) of 2.14e+06 M⁻¹ s⁻¹.

B5: BU2 (bispecific antibody, human IgG1, kappa, L234A L235A)
heavy 1: not shown
light 1: not shown
heavy 2: QVQLQQSGAEVKKPGSSVRVSCKASGGTFNNNAINWVRQAPGQGLEWMGGIIPMFGTAKYSQNFQGRVAITADESTGTASMELSSLRSEDTAVYYCARSRDLLLFPHHALSPWGRGTMVTVSSGGGGSGIPPKIECLPSDISIDEGKVLTVASAFTGEPTPEVTWSTGGRKIHSQEQGRFHIESTEDLTTLIISDVQKQDGGLYSLSLGNEFGSDSATVNIHIRSIDKTHTCPPCPAPEAAGGPSVFLFPPKPKDTLMISRTPEVTCVVVDVSHEDPEVKFNWYVDGVEVHNAKTKPREEQYNSTYRVVSVLTVLHQDWLNGKEYKCKVSNKALPAPIEKTISKAKGQPREPQVCTLPPSREEMTKNQVSLSCAVKGFYPSDIAVEWESNGQPENNYKTTPPVLDSDGSFFLVSKLTVDKSRWQQGNVFSCSVMHEALHNHYTQKSLSLSPGK
light 2: SSELTQDPAVSVALGQTVRVTCQGDSLRSYYASWYQQKPGQAPVLVIYGKNNRPSGIPDRFSGSSSGNTASLTITGAQAEDEADYYCSSRDSSGNHWVFGGGTELTVLGGGGSDQPQFSGAPRFLTRPLSYVVSVGKDASLSSQIVGNPTPQVSWEKDQLPVTAGARFRLAQDGDLYRLKILDLQLSDSGQYVSRARNAIGEAFACVGLEVGAEA
Consider B5, for which the EC50 was determined as 0.0567 nM with hP40 and 0.469 nM with hBAFF.

B6: BU3 (bispecific antibody, human IgG1, kappa, L234A L235A)
heavy 1: not shown
light 1: SSELTQDPAVSVALGQTVRVTCQGDSLRSYYASWYQQKPGQAPVLVIYGKNNRPSGIPDRFSGSSSGNTASLTITGAQAEDEADYYCSSRDSSGNHWVFGGGTELTVLGGGGSDQPQFSGAPRFLTRPLSYVVSVGKDASLSSQIVGNPTPQVSWEKDQLPVTAGARFRLAQDGDLYRLKILDLQLSDSGQYVSRARNAIGEAFACVGLEVGAEA
heavy 2: EVQLVQSGAEVKKPGESLKISCKGSGYSFTTYWLGWVRQMPGKGLDWIGIMSPVDSDIRYSPSFQGQVTMSVDKSITTAYLQWNSLKASDTAMYYCARRRPGQGYFDFWGQGTLVTVSSASTKGPSVFPLAPSSKSTSGGTAALGCLVKDYFPEPVTVSWNSGALTSGVHTFPAVLQSSGLYSLSSVVTVPSSSLGTQTYICNVNHKPSNTKVDKKVEPKSCDKTHTCPPCPAPEAAGGPSVFLFPPKPKDTLMISRTPEVTCVVVDVSHEDPEVKFNWYVDGVEVHNAKTKPREEQYNSTYRVVSVLTVLHQDWLNGKEYKCKVSNKALPAPIEKTISKAKGQPREPQVCTLPPSREEMTKNQVSLSCAVKGFYPSDIAVEWESNGQPENNYKTTPPVLDSDGSFFLVSKLTVDKSRWQQGNVFSCSVMHEALHNHYTQKSLSLSPGK
light 2: not shown
Turning to B6, the figures for the concentration giving a half-maximal response (EC50) with hP40 and in the experiment with hBAFF were 0.224 nM and 0.413 nM, respectively.

B7: N3 (antibody)
heavy: not shown
light: EIVLTQSPGTLSLSPGERATLSCRASQNINNRFLAWYQQRPGQAPRLLIYAASSRATGVPDRFSGSGSGTDFTLTISRLEAEDFAMYHCQQYGSFPRTFGQGTMVDIKSGAPRFLTRPKAFVVSVGKDATLSCQIVGNPTPQVSWEKDQQPVAAGARFRLAQDGDLYRLTILDLALGDSGQYVCRARNAIGEAFAAVGLQVDAEA
Turning to B7, the EC50 is 6.45 nM in the experiment with CEA on MKN45 cells [1] and 4.5 nM with CEA on MKN45 cells [2].

B8: N6 (antibody)
heavy: not shown
light: EIVLTQSPGTLSLSPGERATLSCRASQNINNRFLAWYQQRPGQAPRLLIYAASSRATGVPDRFSGSGSGTDFTLTISRLEAEDFAMYHCQQYGSFPRTFGQGTMVDIKSGCPRFLTRPKAFVVSVGKDATLSSQIVGNPTPQVSWEKDQQPVAAGARFRLAQDGDLYRLTILDLALGDSGQYVSRARNAIGEAFAAVGLQVDAEA
Molecule B8 came in with a half-maximal effective concentration (EC50) with CEA on MKN45 cells [2] of 8.4 nM.

B9: h1831K (antibody, human IgG1, kappa, V domains shown)
VH: QVQLVQSGAEVKKPGASVKVSCKASGYTFTSYWMHWVRQAPGQGLEWMGRITPSSGFAMYNEKFKNRVTMTRDTSTSTVYMELSSLRSEDTAVYYCARGGSSYDYFDYWGQGTTVTVSS
VL: DIVLTQSPASLAVSPGQRATITCRASESVSIHGTHLMHWYQQKPGQPPKLLIYAASKLESGVPARFSGSGSGTDFTLTINPVEAEDTANYYCQQSFEDPLTFGQGTKLEIKR
notes: also called P-IgG1; PDL1 monoclonal antibody
With B9, in the experiment with human PDL1-his, binding was characterised by a dissociation constant (Kd) of 0.0417 nM, the koff was 8.67e-05 s⁻¹ and the kon was 2.08e+06 M⁻¹ s⁻¹.

B10: F0 (antibody, human IgG1, lambda)
heavy: not shown
light: DTVVTQEPSFSVSPGGTVTLTCGLSSGSVSTSHYPSWYQQTPGQAPRMLIYNTNTRSSGVPDRFSGSILGNKAALTITGAQADDESDYYCAIHVDRDIWVFGGGTKLTVLGQPKAAPSVTLFPPSSEELQANKATLVCLISDFYPGAVTVAWKADSSPVKAGVETTTPSKQSNNKYAASSYLSLTPEQWKSHRSYSCQVTHEGSTVEKTVAPTECS
Turning to B10, in the experiment with hB7H3 antigen protein, the Kd was found to be 13.1 nM, the koff was 0.00206 s⁻¹ and the association rate constant (kon) was 157000 M⁻¹ s⁻¹. Further, the EC50 in experiment [3] amounted to 1.29 nM.
